Bridge positions count the residues as written; N and C are the ends. Square brackets hold non-standard residues; d marks the D form. Primed or numbered codes have the meaning given here. Ends that are not written are not given here. * marks the point of attachment. Man9GlcNAc2 = CC(=O)N[C@@H]1[C@@H](O)[C@H](O[C@@H]2O[C@H](CO)[C@@H](O[C@@H]3O[C@H](CO[C@H]4O[C@H](CO[C@H]5O[C@H](CO)[C@@H](O)[C@H](O)[C@@H]5O[C@H]5O[C@H](CO)[C@@H](O)[C@H](O)[C@@H]5O)[C@@H](O)[C@H](O[C@H]5O[C@H](CO)[C@@H](O)[C@H](O)[C@@H]5O[C@H]5O[C@H](CO)[C@@H](O)[C@H](O)[C@@H]5O)[C@@H]4O)[C@@H](O)[C@H](O[C@H]4O[C@H](CO)[C@@H](O)[C@H](O)[C@@H]4O[C@H]4O[C@H](CO)[C@@H](O)[C@H](O)[C@@H]4O[C@H]4O[C@H](CO)[C@@H](O)[C@H](O)[C@@H]4O)[C@@H]3O)[C@H](O)[C@H]2NC(C)=O)[C@@H](CO)O[C@H]1*; Hpra′ = its azide, alkyne or alkene has reacted where a group follows in round brackets

The chains are these.
B3: PGT128 (antibody, V domains shown)
VH: QPQLQESGPTLVEASETLSLTCAVSGDSTAACNSFWGWVRQPPGKGLEWVGSLSHCASYWNRGWTYHNPSLKSRLTLALDTPKNLVFLKLNSVTAADTATYYCARFGGEVLRYTDWPKPAWVDLWGRGTLVTVSS
VL: QSALTQPPSASGSPGQSITISCTGTSNNFVSWYQQHAGKAPKLVIYDVNKRPSGVPDRFSGSKSGNTASLTVSGLQTDDEAVYYCGSLVGNWDVIFGGGTKLTVL

Among the targets are m12; m13; m14.
What all share (experiment): BLI
Background: In BLI a coated tip is dipped into the sample, and binding shifts an interference pattern.

Assay [1] concerns the target B3.
Assay [2] has as its target H1 mutant without the glycans at the second and third glycosylation sites (peptide 4) (Man9GlcNAc2 by CuAAC on homopropargylglycine at the first glycosylation site only; biotin on the C-terminal lysine).
Assay [3] deals with H1 mutant without the glycan at the first of the three glycosylation sites (peptide 3) (Man9GlcNAc2 by CuAAC on homopropargylglycine at the second and third glycosylation sites only; biotin on the C-terminal lysine).
Assay [4] has as its target random scrambled version of the H1 sequence containing three glycans and cyclization (peptide 6) (three Man9GlcNAc2 glycans attached by CuAAC on homopropargylglycine (printed as M); cyclized; biotin on the C-terminal lysine).
Assay [5] concerns the target B3. This is another data set of the same source.
The target in assay [6] is GB1R-non-glycosylated peptide (12).

B1: m2 (protein)
chain 1: QVHLQESGPGLVKPSETLSLTCNVSGTLVRDNYWSWIRQPLGKQPEWIGYVHDSGDTNYNPSLKSRVHLSLDKSKNLVSLRLTGVTAADSAIYYCATTKHGRRIYGVVAFKEWFTYFYMDVWGKGTSVTVSS
chain 2: APTFVSVAPGQTARITCGEESLGSRSVIWYQQRPGQAPSLIIYNNNDRPSGIPDRFSGSPGSTFGTTATLTITSVEAGDEADYYCHIWDSRRPTNWVFGEGTTLIVL
Broadly, the koff is a measure of how fast the partners let go of each other. A high value points to a short-lived complex. As to B1, the koff with m12 worked out at 0.000802 s⁻¹; with m13 it was 0.000202 s⁻¹.

B2: L1 glycopeptide (peptide 8) (peptide)
chain: SIKLINQ[Hpra′](Man9GlcNAc2)[Hpra′](Man9GlcNAc2)TTNPHLRLHIGDIRRLIKDLY[Hpra′](Man9GlcNAc2)FRVYYRPTNSGRRLFVN
modifications: not fully specified (C-terminus); also: Man9GlcNAc2 attached by CuAAC, biotin on the C-terminal lysine (no K at C-terminus of given chain)
Consider B2, for which the koff with PGT128 [1] stood at 0.000645 s⁻¹.

As a reminder, the Kd is the constant that tells how readily two partners part at equilibrium. The low end stands for tighter binding, the high end for weaker binding. For the molecule B3, the results for the Kd in assay [2] and in assay [3] were 21.1 nM and 0.94 nM, respectively. The values for the koff in [2], in assay [3] and in assay [4] were 0.00221 s⁻¹, 5.6e-05 s⁻¹ and 0.0132 s⁻¹, respectively.

B4: H1 mutant with IGDIR changed to IAAIA (peptide 5) (peptide)
chain: YTEKHNGIAAIAPAIC[Hpra′](Man9GlcNAc2)NSKNQNHRCNHYQIKLYIH[Hpra′](Man9GlcNAc2)L[Hpra′](Man9GlcNAc2)RLPHNYRNS
modifications: not fully specified (C-terminus); cysteine pairing not given here; also: Man9GlcNAc2 attached by CuAAC, biotin on the C-terminal lysine (no K at C-terminus of given chain)
Regarding B4, the Kd with PGT128 [5] came to 12.4 nM. This molecule also returned an off-rate (koff) in the assay with PGT128 [1] of 0.00212 s⁻¹.

B5: H1 glycopeptide (peptide 1) (peptide)
chain: YTEKHNGIGDIRPAIC[Hpra′](Man9GlcNAc2)NSKNQNHRCNHYQIKLYIH[Hpra′](Man9GlcNAc2)L[Hpra′](Man9GlcNAc2)RLPHNYRNS
modifications: linker 16-26 via m‑dibromoxylene (inferred); not fully specified (C-terminus); also: Man9GlcNAc2 attached by CuAAC, biotin on the C-terminal lysine (no K at C-terminus of given chain)
In the assay with PGT128 [1], B5 came in with a koff of 6.3e-05 s⁻¹.

B6: acyclic H1 variant (peptide 7) (peptide)
chain: YTEKHNGIGDIRPAIC(iodoacetamide)[Hpra′](Man9GlcNAc2)NSKNQNHRC(iodoacetamide)NHYQIKLYIH[Hpra′](Man9GlcNAc2)L[Hpra′](Man9GlcNAc2)RLPHNYRNS
modifications: not fully specified (C-terminus); also: Man9GlcNAc2 attached by CuAAC, biotin on the C-terminal lysine (no K at C-terminus of given chain)
In the assay with PGT128 [1], B6 displayed a koff of 0.00616 s⁻¹.

B7: H22 glycopeptide (peptide 2) (peptide)
chain: LFKPYPKIGDIRKARC[Hpra′](Man9GlcNAc2)LQHTLHHRTNKQPSYRRRLKTLIPLFRRC[Hpra′](Man9GlcNAc2)L
modifications: not fully specified (C-terminus); cysteine pairing not given here; also: Man9GlcNAc2 attached by CuAAC, biotin on the C-terminal lysine (no K at C-terminus of given chain)
In the assay with PGT128 [1], B7 returned a koff of 0.00635 s⁻¹.

B8: gl-PGT121 (protein)
chain 1: SYVLTQPPSVSVAPGQTARITCGGNNIGSKSVHWYQQKPGQAPVLVVYDDSDRPSGIPERFSGSNSGNTATLTISRVEAGDEADYYCQVWDSSSDHPWVFGGGTKLTVLGQPKAAPSVTLFPPSSEELQANKATLVCLISDFYPGAVTVAWKADSSPVKAGVETTTPSKQSNNKYAASSYLSLTPEQWKSHRSYSCQVTHEGSTVEKTVAPTECS
chain 2: QVQLQESGPGLVKPSETLSLTCTVSGGSISSYYWSWIRQPPGKGLEWIGYIYYSGSTNYNPSLKSRVTISVDTSKNQFSLKLSSVTAADTAVYYCARTQQGKRIYGVVSFGDYYYYYYMDVWGKGTTVTVSSASTKGPSVFPLAPSSKSTSGGTAALGCLVKDYFPEPVTVSWNSGALTSGVHTFPAVLQSSGLYSLSSVVTVPSSSLGTQTYICNVNHKPSNTKVDKRVEPKSCDKTHHHHHH
As to B8, in the assay with m14, the Kd stood at 570 nM and the koff is 0.00262 s⁻¹. In [6], this molecule gave a Kd of 710 nM and a koff of 0.00199 s⁻¹.

For the origin of these results see publication PMC12291119 (2025).
